Molecular target: the molecule itself
Experiment: AUC; sedimentation velocity, protein alone, 48 000 rpm, 20°C, 50 mM Tris-HCl pH 7.5, 10 mM MgCl2, 50 mM NaCl; 2.5-320 μM protein; isotherms of weight-average sedimentation coefficients fitted to a monomer-dimer self-association model (SEDPHAT); dimer to monomers

Protein	Kd [µM]
Full-length protein p6 (wt) of Bacillus subtilis bacteriophage φ29 (natural protein, UniProt P03685 1-104, looked up, numbers count on: the traditional numbering of φ29 p6, where the second residue (Ala) is position 1 because the initial Met is removed in vivo; about 11.8 kDa as printed; also called wt p6; φ29 protein p6; source: produced and purified as previously described (23)) MAKMMQREITKTTVNVAKMVMVDGEVQVEQLPSETFVGNLTMEQAQWRMKRKYKGEPVQVVSVEPNTEVYELPVEKFLEVATVRVEKDEDQEEQTEAPEEQVAE	11.4
p6CΔ20 (residues 1–83), C-terminal deletion mutant of φ29 protein p6 (domain or fragment) AKMMQREITKTTVNVAKMVMVDGEVQVEQLPSETFVGNLTMEQAQWRMKRKYKGEPVQVVSVEPNTEVYELPVEKFLEVATVR	47

— article PMC10899789, “Flexible structural arrangement and DNA-binding properties of protein p6 from Bacillus subtillis phage φ29” (Nucleic Acids Research, 2024)
